# B1: biotinylated E-box oligonucleotide (dsDNA)
# DNA 1: TGAAGCAGACCACGTGGTCGTCTTCA
# DNA 2: TGAAGACGACCACGTGGTCTGCTTCA
# What was measured:
# Assay in all cases: SPR
# c-Myc bHLH-ZIP = c-Myc bHLH-ZIP (Homo sapiens (human), UniProt P01106-1 353-437)
# Max(S) = Max(S) (UniProt P61244-2 1-151)
# Max(L) = Max(L) (UniProt P61244 1-160)
# Sequence of c-Myc bHLH-ZIP (P01106 368-452): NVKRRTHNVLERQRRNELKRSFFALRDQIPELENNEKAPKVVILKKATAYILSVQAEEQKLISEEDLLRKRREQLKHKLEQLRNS
binder,measurement,setting,value
B1,binding result,c-Myc bHLH-ZIP,no binding
same,binding result,Max(S),no binding
same,binding result,Max(L),binds
